Where a chain is given by its changes, count along the chain named. Names and notes keep the numbering of the source.
B1: uTEV3, full-length (HIS6-MBP-TEV I138T S153N T180A, S219V) (protein)
chain: GESLFKGPRDYNPISSTICHLTNESDGHTTSLYGIGFGPFIITNKHLFRRNNGTLLVQSLHGVFKVKNTTTLQQHLIDGRDMIIIRMPKDFPPFPQKLKFREPQREERICLVTTNFQTKSMSSMVSDTSCTFPSSDGTFWKHWIQTKDGQCGNPLVSTRDGFIVGIHSASNFTNTNNYFASVPKNFMELLTNQEAQQWVSGWRLNADSVLWGGHKVFMVKPEEPFQPVKEATQLMNELVYSQ
B2: wild-type TEVΔ (TEVΔ-S219V), purified with His tag from bacteria (protein)
chain: HHHHHHGESLFKGPRDYNPISSTICHLTNESDGHTTSLYGIGFGPFIITNKHLFRRNNGTLLVQSLHGVFKVKNTTTLQQHLIDGRDMIIIRMPKDFPPFPQKLKFREPQREERICLVTTNFQTKSMSSMVSDTSCTFPSSDGIFWKHWIQTKDGQCGSPLVSTRDGFIVGIHSASNFTNTNNYFTSVPKNFMELLTNQEAQQWVSGWRLNADSVLWGGHKVFMV
B3: uTEV2Δ (TEVΔ/S219V + T30A + S153N), purified with His tag from bacteria (protein)
chain: B2 chain with T36A, S159N
B4: uTEV1Δ (TEVΔ/S219V + S153N), purified with His tag from bacteria (protein)
chain: B2 chain with S159N

Legend:
[1] = molecular target: B2Ar-heLOV-TEVcs-Gal4-V5 (SPARK transcription factor component) (UniProt P07550); test: cell-based or functional assay
[2] = molecular target: CD4-HA-CIBN-2xMKII-NNES-heLOV-GAL4 (FLARE transcription factor component) (Arabidopsis thaliana); test: cell-based or functional assay
[3] = molecular target: MBP-TEVcs(ENLYFQ/S)-eGFP [MBP: P0AEX9]
[4] = molecular target: MBP-TEVcs(ENLYFQ/S)-eGFP [MBP: P0AEX9]; test: Michaelis-Menten fit of the in-gel fluorescence cleavage assay, purified protease with the substrate titrated; the filing defines affinity as Km
[5] = molecular target: MBP-TEVcs(ENLYFQ/M)-eGFP [MBP: P0AEX9]

Molecule	turnover rate (kapp) [5] [s⁻¹]	turnover rate (kapp), fold against wild-type TEVΔ [5]	other results
HA-arrestin-TEVΔ/S153N (SPARK protease component with uTEV1Δ) (enzyme)			SPARK mCherry reporter, +/-agonist signal ratio [1]: 20.7
eGFP-CaM-TEVΔ/S219V + S153N (FLARE protease component with uTEV1Δ) (enzyme)			FLARE mCherry reporter, high/low Ca+2 signal ratio [2]: 12; FLARE mCherry reporter, signal-to-background ratio [2]: 12.2
B1			kcat/Km, fold against wild-type TEV [3]: a 2.8-fold increase in kcat/Km; fold improvement of Km against wild-type TEV [4]: Km improved by 3-fold
B2	0.01		
B3	0.062	5.4- and 6.2-fold higher than wild-type	
B4	0.054	5.4- and 6.2-fold higher than wild-type	

— patent US20230067225A1
